Where two headings read alike, the source gives them in different places.
Legend:
cryo-EM structure [1] = biological target: the molecule itself; experiment: cryo-EM structure
cryo-EM structure [2] = biological target: the molecule itself; experiment: cryo-EM structure; remark: listed apart in the source

B1: chicken STING (Gallus gallus), full-length, C-terminal Flag tag (natural protein, chicken (Gallus gallus), UniProt E1C7U0 1-379, looked up)
chain: MPQDPSTRSSPARLLIPEPRAGRARHAACVLLAVCFVVLFLSGEPLAPIIRSVCTQLAALQLGVLLKGCCCLAEEIFHLHSRHHGSLWQVLCSCFPPRWYLALLLVGGSAYLDPPEDNGHSPRLALTLSCLCQLLVLALGLQKLSAVEVSELTESSKKNVAHGLAWSYYIGYLKVVLPRLKECMEELSRTNPMLRAHRDTWKLHILVPLGCDIWDDLEKADSNIQYLADLPETILTRAGIKRRVYKHSLYVIRDKDNKLRPCVLEFASPLQTLCAMSQDDCAAFSREQRLEQARLFYRSLRDILGSSKECAGLYRLIAYEEPAEPESHFLSGLILWHLQQQQREEYMVQEELPLGTSSVELSLQVSSSDLPQPLRSDCP
With B1 the “ratio of dimer to higher-order oligomers in the micrographs” value (cryo-EM structure [1]) was ~4 dimer : higher-order oligomers, the “stoichiometry N” value (cryo-EM structure [1]) was 4 and the “stoichiometry N” value (cryo-EM structure [2]) was 2.
